One assay addresses T1, PD-L1-Fc (UniProt Q9NZQ7 19-239, limits assumed).
T1 construct: not shown: Fc part
Description: competition ELISA: PD-L1-Fc coated, Biotin-Fc-PD1 (1 ug/ml) added with the binder; blocks PD-1/PD-L1.

Assay [1] concerns the target T2, biotin-labeled CD47 (Biotin-Fc-CD47) (UniProt Q08722 19-139, limits assumed, biotin-labeled (site not stated)).
T2 construct: not shown: Fc part
Description: competition ELISA: SIRPα-His coated, Biotin-Fc-CD47 (2 ug/ml) pre-incubated with the binder; blocks CD47/SIRPα. (In an ELISA, binding on a coated surface is turned into a signal by an enzyme label.)

Broadly, the IC50 is the point on the concentration scale where inhibition reaches its midpoint. A lower IC50 goes with higher potency.

T2 sequence (Q08722 19-139 limits assumed): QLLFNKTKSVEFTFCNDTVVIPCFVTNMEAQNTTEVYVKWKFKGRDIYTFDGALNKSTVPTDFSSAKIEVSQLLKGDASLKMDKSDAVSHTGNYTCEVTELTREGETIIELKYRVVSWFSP
T1 sequence (Q9NZQ7 19-239 limits assumed): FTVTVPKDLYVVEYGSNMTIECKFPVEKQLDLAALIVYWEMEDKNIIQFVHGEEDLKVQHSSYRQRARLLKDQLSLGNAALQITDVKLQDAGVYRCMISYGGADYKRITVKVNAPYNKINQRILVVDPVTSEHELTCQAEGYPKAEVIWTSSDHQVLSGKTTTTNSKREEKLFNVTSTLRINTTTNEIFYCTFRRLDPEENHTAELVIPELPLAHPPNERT

B1: fusion protein SG12474 (bispecific antibody, human IgG1, kappa, N297A)
heavy: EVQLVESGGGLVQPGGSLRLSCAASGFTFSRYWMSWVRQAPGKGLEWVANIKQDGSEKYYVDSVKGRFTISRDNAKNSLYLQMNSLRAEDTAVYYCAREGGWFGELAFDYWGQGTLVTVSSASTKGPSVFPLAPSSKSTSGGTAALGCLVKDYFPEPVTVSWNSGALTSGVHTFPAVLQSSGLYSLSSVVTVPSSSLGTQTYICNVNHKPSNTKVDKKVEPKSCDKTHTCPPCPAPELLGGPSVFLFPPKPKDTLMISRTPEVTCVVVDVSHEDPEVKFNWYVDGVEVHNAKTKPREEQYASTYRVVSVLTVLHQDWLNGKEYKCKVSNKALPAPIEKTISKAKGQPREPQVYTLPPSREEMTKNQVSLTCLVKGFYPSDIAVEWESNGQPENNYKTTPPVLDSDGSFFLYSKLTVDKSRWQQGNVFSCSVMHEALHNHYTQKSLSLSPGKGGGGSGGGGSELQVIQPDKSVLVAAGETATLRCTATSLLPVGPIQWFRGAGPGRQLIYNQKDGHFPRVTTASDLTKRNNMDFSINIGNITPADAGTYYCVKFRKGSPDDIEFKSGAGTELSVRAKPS
light: EIVLTQSPGTLSLSPGERATLSCRASQRVSSSYLAWYQQKPGQAPRLLIYDASSRATGIPDRFSGSGSGTDFTLTISRLEPEDFAVYYCQQYGSLPWTFGQGTKVEIKRTVAAPSVFIFPPSDEQLKSGTASVVCLLNNFYPREAKVQWKVDNALQSGNSQESVTEQDSKDSTYSLSSTLTLSKADYEKHKVYACEVTHQGLSSPVTKSFNRGEC
notes: First polypeptide chain is the SG1202 light chain
On to B1, for which the IC50 with PD-L1-Fc was found to be 9.12 nM; in assay [1] it was 0.77 nM.

Values taken from patent US20220251154A1 (HANGZHOU SUMGEN BIOTECH, published 2022).
